{"source": "patent US12091776B2", "about": "“Protease activity profiling via programmable phage display of comprehensive proteome-scale peptide libraries” (THE JOHNS HOPKINS UNIVERSITY, priority 2019, dated 2024)", "molecules": {"B1": {"name": "APLPRSNRSRCPGTRQPGAASLHAASAAVPVRPRRGTAPAGKTADAVPAAAPEQAPRPAPQSRKPRNLEGDLDERRLLCHLQLAQDREAR (protein, listed as Homo sapiens)", "chain": "APLPRSNRSRCPGTRQPGAASLHAASAAVPVRPRRGTAPAGKTADAVPAAAPEQAPRPAPQSRKPRNLEGDLDERRLLCHLQLAQDREAR"}, "B2": {"name": "Gasdermin-D: well characterized human Caspase-1 substrate (protein, UniProt P57764 1-484, looked up)", "Gasdermin-D": "MGSAFERVVRRVVQELDHGGEFIPVTSLQSSTGFQPYCLVVRKPSSSWFWKPRYKCVNLSIKDILEPDAAEPDVQRGRSFHFYDAMDGQIQGSVELAAPGQAKIAGGAAVSDSSSTSMNVYSLSVDPNTWQTLLHERHLRQPEHKVLQQLRSRGDNVYVVTEVLQTQKEVEVTRTHKREGSGRFSLPGATCLQGEGQGHLSQKKTVTIPSGSTLAFRVAQLVIDSDLDVLLFPDKKQRTFQPPATGHKRSTSEGAWPQLPSGLSMMRCLHNFLTDGVPAEGAFTEDFQGLRAEVETISKELELLDRELCQLLLEGLEGVLRDQLALRALEEALEQGQSLGPVEPLDGPAGAVLECLVLSSGMLVPELAIPVVYLLGALTMLSETQHKLLAEALESQTLLGPLELVGSLLEQSAPWQERSTMSLPPGLLGNSWGEGAPAWVLLDECGLELGEDTPHVCWEPQAQGRMCALYASLALLSGLSQEPH"}, "B3": {"name": "IL-1β: mouse IL-1β (SEQ ID NO:73); library peptides containing Caspase-1 cleavage sites D26 and D117 (protein, UniProt P10749 118-269, looked up)", "Interleukin-1 beta": "VPIRQLHYRLRDEQQKSLVLSDPYELKALHLNGQNINQQVIFSMSFVQGEPSNDKIPVALGLKGKNLYLSCVMKDGTPTLQLESVDPKQYPKKKMEKRFVFNKIEVKSKVEFESAEFPNWYISTSQAEHKPVFLGNNSGQDIIDFTMESVSS"}}, "key": {"[1]": {"molecular_target": "T1, Thrombin (Homo sapiens, UniProt P00734)", "T1 construct": "Thrombin (a serine protease); purchased SignalChem", "assay": "SEPARATE assay: human peptidome library digest with Thrombin", "assay_type": "biochemical", "details": "top 20 enriched peptides, human library (90-aa tiles); digest vs mock digest", "protocol": "The PCR2 amplicons are pooled and sequenced using an Illumina NextSeq instrument in standard output mode to obtain single-end 50 nucleotide reads. Dual indexed sample demultiplexing and clonal read count determination were performed using exact sequence matching. […] To calculate the normalization factor, 100 peptides were randomly selected from the mock digest conditions with a read count ranging between 10 and 40. The median read count value for these 100 peptides is calculated for each sample. The random peptide selection and median calculation is performed 20 times and the average of the 20 median values is calculated for each sample. Finally, the normalization factor is calculated by dividing the average median value for each sample by that for one of the mock digest conditions. […]"}, "[2]": {"molecular_target": "T2, Caspase-1 (Homo sapiens, UniProt P29466)", "T2 construct": "purchased BioVision", "T2 sequence (P29466 120-297 limits assumed)": "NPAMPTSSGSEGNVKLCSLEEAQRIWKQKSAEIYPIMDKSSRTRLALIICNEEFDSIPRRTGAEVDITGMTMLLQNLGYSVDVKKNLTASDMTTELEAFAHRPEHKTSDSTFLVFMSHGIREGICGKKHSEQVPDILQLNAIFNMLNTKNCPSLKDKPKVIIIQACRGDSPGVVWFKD", "T2 sequence (P29466 317-404 limits assumed)": "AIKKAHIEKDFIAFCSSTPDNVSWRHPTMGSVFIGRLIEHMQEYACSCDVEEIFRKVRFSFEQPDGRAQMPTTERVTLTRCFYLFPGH", "assay": "SEPARATE assay: human peptidome library digest with Caspase-1", "assay_type": "biochemical", "details": "human library, Caspase-1", "description": "(§1) Streptavidin-coupled magnetic beads (Dynabeads M-280 Streptavidin, ThermoFisher Scientific) were washed (TBS, pH 7.4, 0.01% NP40) and resuspended in binding buffer (TBS, pH 7.4, 0.001% NP40) containing 2E9 plaque forming units per 10 μl of bead slurry. End-over-end mixing at room temperature was performed for one hour. Phage-coated beads were washed three times with wash buffer and transferred into two protein LoBind Eppendorf tubes blocked with TBS, pH 7.4 containing 1% BSA.\nDigestion occurred overnight at room temperature with end-over-end rotation. […] To remove any residual biotinylated phage that may have been nonspecifically released, the 150 μl supernatant of the quenched digest reaction is then incubated with a fresh 10 μl of slurry volume M280 streptavidin beads (pre-washed three times with wash buffer) in a LoBind Eppendorf tube blocked with TBS, pH 7.4 containing 1% BSA at room temperature for one hour with end-over-end rotation.\n10 μl slurry volume of protein G magnetic dynabeads were washed in buffer (TBS, pH 7.4, 0.01% NP40) and then resuspended in 50 μl TBS, pH 7.4, 0.01% NP40 containing 4 μg of M2 FLAG antibody for thirty minutes at room temperature with end-over-end rotation. The 150 μl quenched digest reaction is added to the 10 μl FLAG-coated Protein G beads and incubated for 60 minutes at room temperature with end-over-end rotation to capture phage particles released at the protease digest step. Beads are rinsed once with 100 μl wash buffer and stored at −80° C. until PCR amplification.\nLibrary PCR preparation, high-throughput DNA sequencing, and peptide read count data generation was performed as described previously.^44 Briefly, library peptide inserts are amplified by resuspending 10 μl of FLAG-coated Protein G beads in PCR1 master mix containing the T7-Pep2_PCR1_F forward primer ([…]) (SEQ ID NO:3) and a T7-SEPARATE vector specific reverse primer ([…]) (SEQ ID NO:4), which includes an adapter sequence for sample-specific barcoding and Illumina P7 adapter incorporation during a subsequent PCR2 reaction. The PCR2 amplicons are pooled and sequenced using an Illumina NextSeq instrument in standard output mode to obtain single-end 50 nucleotide reads. Dual indexed sample demultiplexing and clonal read count determination were performed using exact sequence matching. […] To calculate the normalization factor, 100 peptides were randomly selected from the mock digest conditions with a read count ranging between 10 and 40. The median read count value for these 100 peptides is calculated for each sample. The random peptide selection and median calculation is performed 20 times and the average of the 20 median values is calculated for each sample. Finally, the normalization factor is calculated by dividing the average median value for each sample by that for one of the mock digest conditions. Read counts are then converted to normalized read counts by dividing each sample's read count values by the normalization factor. Fold enrichments are calculated for each peptide by dividing their normalized read counts in the digest condition by the normalized read counts in the mock digest condition. The fold enrichments can be visualized in an MA plot by transforming the normalized read count data into a log ratio (M, on the y-axis) and a mean average (A, on the x-axis) between the digest and mock digest conditions."}, "[3]": {"molecular_target": "T3, endogenous Caspase-1 (Homo sapiens, UniProt P29466)", "T3 construct": "endogenous in cells; host or cells: PMA-differentiated THP-1 cells", "T3 sequence (P29466 120-404)": "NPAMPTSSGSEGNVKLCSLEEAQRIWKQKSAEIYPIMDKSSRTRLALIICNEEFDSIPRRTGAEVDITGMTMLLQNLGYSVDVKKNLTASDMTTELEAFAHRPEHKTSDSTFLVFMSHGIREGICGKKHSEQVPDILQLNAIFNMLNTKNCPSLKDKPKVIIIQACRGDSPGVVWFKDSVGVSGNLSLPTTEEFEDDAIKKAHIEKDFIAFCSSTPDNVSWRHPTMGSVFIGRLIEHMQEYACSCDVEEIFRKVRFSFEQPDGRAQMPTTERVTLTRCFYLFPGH", "assay": "In vitro stimulation of the inflammasome in THP-1 cells (Western blot)", "assay_type": "cell-based", "details": "PMA differentiated THP-1 cells, LPS and Nigericin", "description": "THP-1 cells were cultured in RPMI-1640 media with Glutamax (Gibco, ThermoFisher, Cat #61870127), supplemented with 10% FBS (Hyclone SH30071, GE Life Sciences), and 1× Antibiotic-Antimycotic (Gibco, ThermoFisher, Cat #15240062), referred to as complete RPMI. To differentiate THP-1 cells into macrophages, 1×10^6 THP-1 cells were added per well of a 6-well plate in complete RPMI medium containing 50 ng/ml Phorbol 12-myristate 13-acetate (PMA, diluted in RPMI medium from a 1 mg/ml PMA stock in DMSO, Millipore Sigma, Cat. No. P1585). After 48 hours when the cells become adherent, the medium with PMA was removed, cells washed in 1×PBS once, and fresh complete RPMI was added. Cells were allowed to rest for an additional 24 hours before inflammasome activation with LPS and Nigericin.\nA 6-well plate of PMA differentiated THP-1 cells were treated with 0, 1 or 0.1 μg/ml LPS (Millipore Sigma, Cat. No. LPS25) for 3.5 hours. After 3.5 hours, cells were treated with 2.5 μM Nigericin for an additional 30 minutes to activate the inflammasome. Cells were washed in 1×PBS and lysed in 1× mammalian cell extraction buffer (BioVision, Cat. No. K269) containing 2 μM Dithiothreitol (DTT). Nuclei were spun down by centrifugation (10,000 rpm, 5 minutes, 4° C.) and the cleared supernatant was used to perform Western blots. […]"}, "[4]": {"molecular_target": "T2, Caspase-1", "assay": "SEPARATE assay: 56-amino acid mouse peptidome library digested with Caspase-1", "assay_type": "biochemical", "details": "mouse library peptides of IL-1β and Gsdmd, FIG. 8", "description": "as §1\nDigestion occurred overnight at room temperature with end-over-end rotation. […]\nLibrary PCR preparation, high-throughput DNA sequencing, and peptide read count data generation was performed as described previously.^44 Briefly, library peptide inserts are amplified by resuspending 10 μl of FLAG-coated Protein G beads in PCR1 master mix containing the T7-Pep2_PCR1_F forward primer ([…]) (SEQ ID NO:3) and a T7-SEPARATE vector specific reverse primer ([…]) (SEQ ID NO:4), which includes an adapter sequence for sample-specific barcoding and Illumina P7 adapter incorporation during a subsequent PCR2 reaction. The PCR2 amplicons are pooled and sequenced using an Illumina NextSeq instrument in standard output mode to obtain single-end 50 nucleotide reads. Dual indexed sample demultiplexing and clonal read count determination were performed using exact sequence matching. […]"}}, "note": "“And” between values parts separate entries of the source, which are not always exact repeats. Identical values can stand only once.", "data": [{"molecule": "B1", "values": [{"measurement": "Thrombi Fold Change", "setting": "[1]", "result": 10.98, "unit": "fold"}]}, {"molecule": "B2", "values": [{"measurement": "scoring in the SEPARATE assay", "setting": "[2]", "result": "did not score"}, {"measurement": "cleavage by endogenous Caspase-1 upon inflammasome activation (Western blot)", "setting": "[3]", "result": "cleaved"}]}, {"molecule": "B3", "values": [{"measurement": "Fold enrichments", "setting": "[4]", "result": "7.5 fold and 13 fold and 9 fold"}]}]}
